Consider 3 molecules from paper PMC9787417 (Pathogens, 2022).

One series concerns the target 14-3-3β (Homo sapiens) (UniProt P31946). Conditions: cited from earlier work.
The series “mass photometry” concerns the molecule itself. The series can be described thus: mass photometry.

Sequence of 14-3-3β (Homo sapiens) (P31946 2-246): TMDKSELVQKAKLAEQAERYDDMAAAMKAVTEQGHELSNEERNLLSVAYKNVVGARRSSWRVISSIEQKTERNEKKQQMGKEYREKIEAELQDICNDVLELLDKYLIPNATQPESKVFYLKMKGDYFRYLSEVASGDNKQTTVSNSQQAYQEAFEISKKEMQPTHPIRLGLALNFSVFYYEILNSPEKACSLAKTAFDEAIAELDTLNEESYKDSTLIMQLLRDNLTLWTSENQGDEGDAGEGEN

Take ExoS ART domain (from UniProt G3XDA1): the Kd (commonly the equilibrium constant for the complex coming apart) with 14-3-3β (Homo sapiens) is 40 nM.

B1: human 14-3-3β, individually expressed, with affinity tag (natural protein)
chain: MTMDKSELVQKAKLAEQAERYDDMAAAMKAVTEQGHELSNEERNLLSVAYKNVVGARRSSWRVISSIEQKTERNEKKQQMGKEYREKIEAELQDICNDVLELLDKYLIPNATQPESKVFYLKMKGDYFRYLSEVASGDNKQTTVSNSQQAYQEAFEISKKEMQPTHPIRLGLALNFSVFYYEILNSPEKACSLAKTAFDEAIAELDTLNEESYKDSTLIMQLLRDNLTLWTSENQGDEG
notes: also called purified 14-3-3β
B1: in the series “mass photometry”, the stoichiometry N (as a rule, a count of units in the complex or per binding partner) amounted to 2.

B2: human 14-3-3β, un-tagged, co-expressed with the exotoxin ART domains (natural protein)
chain: MTMDKSELVQKAKLAEQAERYDDMAAAMKAVTEQGHELSNEERNLLSVAYKNVVGARRSSWRVISSIEQKTERNEKKQQMGKEYREKIEAELQDICNDVLELLDKYLIPNATQPESKVFYLKMKGDYFRYLSEVASGDNKQTTVSNSQQAYQEAFEISKKEMQPTHPIRLGLALNFSVFYYEILNSPEKACSLAKTAFDEAIAELDTLNEESYKDSTLIMQLLRDNLTLWTSENQGDEG
In the case of B2, the “stoichiometry N” value in “mass photometry” is 2.
